Read-outs that look alike come from different tables or passages of the source. Starred links: 1 amine or outer side, 2 acyl side, 3 side chain; linkers in the order of their positions; H or OH if unused. Non-standard residues stand in square brackets, D forms with d. No end group written: not given here. *: point of attachment. Tyr(Me) = COc1ccc(C[C@H](N[*:1])C(=O)[*:2])cc1; Arg(Me) = CNC(=N)NCCC[C@H](N)C(=O)O; Fmoc = O=C(OCC1c2ccccc2-c2ccccc21)*; Lys(Me2) = CN(C)CCCC[C@H](N)C(=O)O; Abu = CC[C@H](N)C(=O)O; azaGly = NNC(=O)O
B1: [D-Tyr1,Ala7,Arg(Me)9]MS10 (Compound No. 173) (peptide)
peptide: [dY]NWNSFAL[Arg(Me)]F-NH2
modifications: N-terminus assumed
SMILES: CNC(=N)NCCC[C@H](NC(=O)[C@H](CC(C)C)NC(=O)[C@H](C)NC(=O)[C@H](Cc1ccccc1)NC(=O)[C@H](CO)NC(=O)[C@H](CC(N)=O)NC(=O)[C@H](Cc1c[nH]c2ccccc12)NC(=O)[C@H](CC(N)=O)NC(=O)[C@H](N)Cc1ccc(O)cc1)C(=O)N[C@@H](Cc1ccccc1)C(N)=O
B2: Metastin (peptide)
peptide: GTSLSPPPESSGSRQQPGLSAPHSRQIPAPQGAVLVQREKDLPNYNWNSFGLRF
B3: des(1-2)-Fmoc-MS10 (peptide)
peptide: Fmoc-WNSFGLRF-NH2
SMILES: CC(C)C[C@H](NC(=O)CNC(=O)[C@H](Cc1ccccc1)NC(=O)[C@H](CO)NC(=O)[C@H](CC(N)=O)NC(=O)[C@H](Cc1c[nH]c2ccccc12)NC(=O)OCC1c2ccccc2-c2ccccc21)C(=O)N[C@@H](CCCNC(=N)N)C(=O)N[C@@H](Cc1ccccc1)C(N)=O
notes: also called Compound No. 54
B4: [D-Tyr1,Ala3,Arg(Me)9]MS10 (peptide)
peptide: [dY]NANSFGL[Arg(Me)]F-NH2
modifications: N-terminus assumed
SMILES: CNC(=N)NCCC[C@H](NC(=O)[C@H](CC(C)C)NC(=O)CNC(=O)[C@H](Cc1ccccc1)NC(=O)[C@H](CO)NC(=O)[C@H](CC(N)=O)NC(=O)[C@H](C)NC(=O)[C@H](CC(N)=O)NC(=O)[C@H](N)Cc1ccc(O)cc1)C(=O)N[C@@H](Cc1ccccc1)C(N)=O
notes: also called Compound No. 169
B5: [D-Tyr1,Ile3,Arg(Me)9]MS10 (peptide)
peptide: [dY]NINSFGL[Arg(Me)]F-NH2
modifications: N-terminus assumed
SMILES: CC[C@H](C)[C@H](NC(=O)[C@H](CC(N)=O)NC(=O)[C@H](N)Cc1ccc(O)cc1)C(=O)N[C@@H](CC(N)=O)C(=O)N[C@@H](CO)C(=O)N[C@@H](Cc1ccccc1)C(=O)NCC(=O)N[C@@H](CC(C)C)C(=O)N[C@@H](CCCNC(=N)NC)C(=O)N[C@@H](Cc1ccccc1)C(N)=O
notes: also called Compound No. 206
B6: [D-Tyr1,Thr5,Arg(Me)9]MS10 (peptide)
peptide: [dY]NWNTFGL[Arg(Me)]F-NH2
modifications: N-terminus assumed
SMILES: CNC(=N)NCCC[C@H](NC(=O)[C@H](CC(C)C)NC(=O)CNC(=O)[C@H](Cc1ccccc1)NC(=O)[C@@H](NC(=O)[C@H](CC(N)=O)NC(=O)[C@H](Cc1c[nH]c2ccccc12)NC(=O)[C@H](CC(N)=O)NC(=O)[C@H](N)Cc1ccc(O)cc1)[C@@H](C)O)C(=O)N[C@@H](Cc1ccccc1)C(N)=O
notes: also called Compound No. 211
B7: [D-Tyr1,Ala4,Arg(Me)9]MS10 (peptide)
peptide: [dY]NWASFGL[Arg(Me)]F-NH2
modifications: N-terminus assumed
SMILES: CNC(=N)NCCC[C@H](NC(=O)[C@H](CC(C)C)NC(=O)CNC(=O)[C@H](Cc1ccccc1)NC(=O)[C@H](CO)NC(=O)[C@H](C)NC(=O)[C@H](Cc1c[nH]c2ccccc12)NC(=O)[C@H](CC(N)=O)NC(=O)[C@H](N)Cc1ccc(O)cc1)C(=O)N[C@@H](Cc1ccccc1)C(N)=O
notes: also called Compound No. 210
B8: [D-Tyr1,Arg(Me)9,Trp10]MS10 (peptide)
peptide: [dY]NWNSFGL[Arg(Me)]W-NH2
modifications: N-terminus assumed
SMILES: CNC(=N)NCCC[C@H](NC(=O)[C@H](CC(C)C)NC(=O)CNC(=O)[C@H](Cc1ccccc1)NC(=O)[C@H](CO)NC(=O)[C@H](CC(N)=O)NC(=O)[C@H](Cc1c[nH]c2ccccc12)NC(=O)[C@H](CC(N)=O)NC(=O)[C@H](N)Cc1ccc(O)cc1)C(=O)N[C@@H](Cc1c[nH]c2ccccc12)C(N)=O
notes: also called Compound No. 174
B9: [D-Tyr1,Ser3,Arg(Me)9]MS10 (peptide)
peptide: [dY]NSNSFGL[Arg(Me)]F-NH2
modifications: N-terminus assumed
SMILES: CNC(=N)NCCC[C@H](NC(=O)[C@H](CC(C)C)NC(=O)CNC(=O)[C@H](Cc1ccccc1)NC(=O)[C@H](CO)NC(=O)[C@H](CC(N)=O)NC(=O)[C@H](CO)NC(=O)[C@H](CC(N)=O)NC(=O)[C@H](N)Cc1ccc(O)cc1)C(=O)N[C@@H](Cc1ccccc1)C(N)=O
notes: also called Compound No. 170
B10: [D-Tyr1,Ala5,Arg(Me)9]MS10 (peptide)
peptide: [dY]NWNAFGL[Arg(Me)]F-NH2
modifications: N-terminus assumed
SMILES: CNC(=N)NCCC[C@H](NC(=O)[C@H](CC(C)C)NC(=O)CNC(=O)[C@H](Cc1ccccc1)NC(=O)[C@H](C)NC(=O)[C@H](CC(N)=O)NC(=O)[C@H](Cc1c[nH]c2ccccc12)NC(=O)[C@H](CC(N)=O)NC(=O)[C@H](N)Cc1ccc(O)cc1)C(=O)N[C@@H](Cc1ccccc1)C(N)=O
B11: [Abu8]MS10 (peptide)
peptide: YNWNSFG[Abu]RF-NH2
modifications: N-terminus assumed
SMILES: CC[C@H](NC(=O)CNC(=O)[C@H](Cc1ccccc1)NC(=O)[C@H](CO)NC(=O)[C@H](CC(N)=O)NC(=O)[C@H](Cc1c[nH]c2ccccc12)NC(=O)[C@H](CC(N)=O)NC(=O)[C@@H](N)Cc1ccc(O)cc1)C(=O)N[C@@H](CCCNC(=N)N)C(=O)N[C@@H](Cc1ccccc1)C(N)=O
notes: also called Compound No. 187
B12: des(1)-[D-Tyr2,AzaGly7,Arg(Me)9]MS10 (peptide)
peptide: [dY]WNSF[azaGly]L[Arg(Me)]F-NH2
modifications: N-terminus assumed
SMILES: CNC(=N)NCCC[C@H](NC(=O)[C@H](CC(C)C)NC(=O)NNC(=O)[C@H](Cc1ccccc1)NC(=O)[C@H](CO)NC(=O)[C@H](CC(N)=O)NC(=O)[C@H](Cc1c[nH]c2ccccc12)NC(=O)[C@H](N)Cc1ccc(O)cc1)C(=O)N[C@@H](Cc1ccccc1)C(N)=O
notes: also called Compound No. 222
B13: des(1)-[D-Tyr2,D-Trp3,AzaGly7,Arg(Me)9]MS10 (peptide)
peptide: [dY][dW]NSF[azaGly]L[Arg(Me)]F-NH2
modifications: N-terminus assumed
SMILES: CNC(=N)NCCC[C@H](NC(=O)[C@H](CC(C)C)NC(=O)NNC(=O)[C@H](Cc1ccccc1)NC(=O)[C@H](CO)NC(=O)[C@H](CC(N)=O)NC(=O)[C@@H](Cc1c[nH]c2ccccc12)NC(=O)[C@H](N)Cc1ccc(O)cc1)C(=O)N[C@@H](Cc1ccccc1)C(N)=O
notes: also called Compound No. 242

Key:
[1] = target: T1, human OT7T175 (metastin receptor) (human, UniProt Q969F8 1-398); assay: cell-based or functional assay
T1 sequence (Q969F8 whole entry L364H): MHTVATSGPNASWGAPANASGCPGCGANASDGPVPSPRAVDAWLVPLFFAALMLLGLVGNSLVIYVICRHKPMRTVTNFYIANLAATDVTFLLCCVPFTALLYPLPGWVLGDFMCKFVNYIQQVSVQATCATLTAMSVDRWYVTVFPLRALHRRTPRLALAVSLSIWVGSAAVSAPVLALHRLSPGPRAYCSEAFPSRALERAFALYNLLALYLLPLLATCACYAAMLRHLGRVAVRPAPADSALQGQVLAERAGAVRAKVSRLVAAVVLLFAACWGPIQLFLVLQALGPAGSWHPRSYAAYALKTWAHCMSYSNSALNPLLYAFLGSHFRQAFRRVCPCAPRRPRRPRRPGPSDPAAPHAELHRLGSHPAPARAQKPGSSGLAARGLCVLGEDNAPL

[2] = target: T1, human OT7T175 (metastin receptor); assay: competition with Cy-5 metastin (40-54) on hOT7T175-CHO cells, FMAT
[3] = target: T1, human OT7T175 (metastin receptor); assay: cell-based or functional assay; remark: listed apart in the source
[4] = target: T1, human OT7T175 (metastin receptor); assay: cell-based or functional assay; remark: listed apart in the source

Binder | Ca ion level-increasing activity (FLIPR) [1] | IC50 [2] [nM] | Ca ion level-increasing activity (FLIPR) [3] | Ca ion level-increasing activity (FLIPR, 40 s) [4] [EC50/MS10 EC50]
B1 | 1 x Metastin (1-54) |  |  | 
SNWNSFGLRF-NH2 [[Ser1]MS10] | 1 x Metastin (1-54) |  |  | 
[dY]NWNSF[azaGly]L[Arg(Me)]F-NH2 (also called Compound No. 232) [[D-Tyr1,AzaGly7,Arg(Me)9]MS10] |  | 49 | 3 x Metastin (1-54) | 3.9
B2 | 1 x Metastin (1-54) |  |  | 
YNWNSFGL[Lys(Me2)]F-NH2 [[Lys(Me2)9]MS10] | 0.5 x Metastin (1-54) |  |  | 
B3 | 5 x Metastin (1-54) | 450 |  | 
YNWNSFALRF-NH2 (also called Compound No. 50) [[Ala7]MS10] | 30 x Metastin (1-54) | 190 |  | 
B4 | 2 x Metastin (1-54) | 160 |  | 
B5 |  | 85 | 10 x Metastin (1-54) | 4.8
B6 |  | 44 | 10 x Metastin (1-54) | 1.3
[dY]NWTSFGL[Arg(Me)]F-NH2 (also called Compound No. 208) [[D-Tyr1,Thr4,Arg(Me)9]MS10] |  | 830 | 1 x Metastin (1-54) | 7.3
DNWNSFGLRF-NH2 (also called Compound No. 75) [[Asp1]MS10] | 1 x Metastin (1-54) | 880 |  | 
B7 |  | 730 | 1 x Metastin (1-54) | 9.3
YNWNSFSLRF-NH2 (also called Compound No. 101) [[Ser7]MS10] | 10 x Metastin (1-54) | 100 |  | 
YNWNSFGLR[Tyr(Me)]-NH2 (also called Compound No. 18) [[Tyr(Me)10]MS10] | 1 x Metastin (1-54) | 7.7 |  | 
B8 |  | 420 | 10 x Metastin (1-54) | 2.3
B9 | 1 x Metastin (1-54) | 260 |  | 
B10 |  | 36 | 10 x Metastin (1-54) | 1.1
YNWNLFGLRF-NH2 (also called Compound No. 24) [[Leu5]MS10] | 1 x Metastin (1-54) | 0.83 |  | 
YNWNSFGARF-NH2 [[Ala8]MS10] | 1 x Metastin (1-54) |  |  | 
B11 |  | 720 | 1 x Metastin (1-54) | 1.9
YNWNSXGLRF (D-Tyr1; Cha6; Arg(Me)9; C-terminal amide) [[D-Tyr1,Cha6,Arg(Me)9]MS10 (Compound No. 172)] | 1 x Metastin (1-54) |  |  | 
KNWNSFGLRF-NH2 [[Lys1]MS10] | 1 x Metastin (1-54) |  |  | 
Fmoc-NSFGL[Arg(Me)]F-NH2 [des(1-3)-Fmoc-[Arg(Me)9]MS10] | 1 x Metastin (1-54) |  |  | 
B12 |  | 33 | 10 x Metastin (1-54) | 2.7
Fmoc-NSFGLRF-NH2 [des(1-3)-Fmoc-MS10] | 1 x Metastin (1-54) |  |  | 
YKWNSFGLRF-NH2 [[Lys2]MS10] | 1 x Metastin (1-54) |  |  | 
B13 |  | 70 | 2 x Metastin (1-54) | 1.4
YNWNSFGLRX (Hph10; C-terminal amide) [[Hph10]MS10] | 1 x Metastin (1-54) |  |  | 
Fmoc-NWNSFGLRF-NH2 [des(1)-Fmoc-MS10] | 5 x Metastin (1-54) |  |  | 

Source: patent US20090298765A1 (Takeda / Millennium, published 2009)
